According to publication PMC4866497:
Where two headings read alike, the source gives them in different places.

Columns and labels:
[1] = test system: MetMab full heavy chain with E345R Q347R T366V K409V, with MetMab light chain; experiment: SEC
[2] = test system: MetMab full heavy chain with E345R Q347R T366V K409V, with MetMab light chain; experiment: SEC; remark: listed apart in the source
[3] = test system: MetMab full heavy chain with T350V T366L K392L T394W, with MetMab light chain; experiment: SEC
[4] = test system: MetMab full heavy chain with T350V T366L K392L T394W, with MetMab light chain; experiment: SEC; remark: listed apart in the source
[5] = test system: MetMab full heavy chain with D399M Y407A, with MetMab light chain; experiment: SEC
[6] = test system: MetMab full heavy chain with D399M Y407A, with MetMab light chain; experiment: SEC; remark: listed apart in the source
[7] = test system: EGFR domain 3 - Fc with D399M Y407A; experiment: FRET or BRET
IgG1 Fc with T366V K409V = experiment: SEC
[8] = test system: MetMab full heavy chain with K360D D399M Y407A, with MetMab light chain; experiment: SEC
[9] = test system: MetMab full heavy chain with K360D D399M Y407A, with MetMab light chain; experiment: SEC; remark: listed apart in the source
[10] = test system: MetMab full heavy chain with T350V L351Y F405A Y407V, with MetMab light chain; experiment: SEC
[11] = test system: MetMab full heavy chain with T350V L351Y F405A Y407V, with MetMab light chain; experiment: SEC; remark: listed apart in the source
[12] = test system: MetMab full heavy chain with T366V K409V, with MetMab light chain; experiment: SEC
[13] = test system: MetMab full heavy chain with T366V K409V, with MetMab light chain; experiment: SEC; remark: listed apart in the source
[14] = test system: EGFR domain 3 - Fc with T350V T366L K392L T394W; experiment: FRET or BRET

IgG1 Fc with K360D D399M Y407A showed a % AB heterodimer [1] of 32.5% and a % AB heterodimer [2] of 93.3%.

IgG1 Fc with T350V L351Y F405A Y407V showed a % AB heterodimer [3] of 18.3% and a % AB heterodimer [4] of 94.3%.

Work on IgG1 Fc with T366V K409V yielded a % AB heterodimer [5] of 42.3% and a % AB heterodimer [6] of 89.9%.

For VEGFR1 domain 3 - Fc with T366V K409V, the % AB heterodimer [7] was 89%.

In the case of “IgG1 Fc with T366V K409V (domain or fragment)”, the % BB homodimer (co-expressed with m8) (IgG1 Fc with T366V K409V) is reported as 8.2%.

Work on IgG1 Fc with E345R Q347R T366V K409V yielded a % AB heterodimer [8] of 46.2% and a % AB heterodimer [9] of 92.9%.

In the case of IgG1 Fc with T350V T366L K392L T394W, the % AB heterodimer [10] is reported as 25.6% and the % AB heterodimer [11] is reported as 87.6%.

With IgG1 Fc with D399M Y407A the % AB heterodimer [12] was 26.9% and the % AB heterodimer [13] was 88.6%.

With “VEGFR1 domain 3 - Fc with T350V L351Y F405A Y407V” the % AB heterodimer [14] was 94.8%.
